Laboratory results reported in US20220088134A1 (REGENTS OF THE UNIVERSITY OF MINNESOTA, published 2022).

Target: human CD200 activation receptors (CD200AR) (human)
Test: cell-based or functional assay

## Ac-CLFNTFGFGAISGTA-NH2 [human CD200AR-L peptide P4A10]
  T-cell secretion of IFNγ after treatment of iDCs with P4A10: 5.4 fold
  T-cell secretion of IL6 after treatment of iDCs with P4A10: 5.6 fold
  T-cell secretion of RANTES after treatment of iDCs with P4A10: 16.3 fold
  T-cell secretion of TNFα after treatment of iDCs with P4A10: 16.6 fold
